Measured values published in patent publication US20160264664A1 (Ablynx, published 2016).
Where two headings read alike, the source gives them in different places.

T1: mouse P2X7 (mouse, UniProt Q9Z1M0 1-595)
T1 construct: on transfected CHO or Hek293 cells, or endogenous on Yac-1 cells; also called mP2X7; mouse purinoceptor P2X7
T1 sequence: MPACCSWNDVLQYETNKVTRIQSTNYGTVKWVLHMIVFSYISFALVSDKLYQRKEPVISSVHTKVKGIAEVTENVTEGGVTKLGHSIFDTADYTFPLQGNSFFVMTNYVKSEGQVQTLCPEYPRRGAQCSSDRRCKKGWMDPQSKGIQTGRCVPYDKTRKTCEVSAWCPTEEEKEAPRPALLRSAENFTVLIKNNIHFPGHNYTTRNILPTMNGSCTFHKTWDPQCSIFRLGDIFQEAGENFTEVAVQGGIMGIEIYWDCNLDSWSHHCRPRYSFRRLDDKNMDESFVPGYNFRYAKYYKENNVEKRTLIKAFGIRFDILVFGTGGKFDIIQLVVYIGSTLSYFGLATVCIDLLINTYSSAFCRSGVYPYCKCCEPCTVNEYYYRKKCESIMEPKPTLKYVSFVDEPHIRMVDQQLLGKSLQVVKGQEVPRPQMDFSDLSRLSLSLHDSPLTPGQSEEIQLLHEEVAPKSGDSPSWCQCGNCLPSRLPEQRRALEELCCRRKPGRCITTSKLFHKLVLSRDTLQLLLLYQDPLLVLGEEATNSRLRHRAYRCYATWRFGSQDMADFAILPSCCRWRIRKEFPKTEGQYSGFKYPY

T2: human P2X4 (human, UniProt Q99571 1-388)
T2 construct: whole, on cells; also called hP2X4
T2 sequence (looked up): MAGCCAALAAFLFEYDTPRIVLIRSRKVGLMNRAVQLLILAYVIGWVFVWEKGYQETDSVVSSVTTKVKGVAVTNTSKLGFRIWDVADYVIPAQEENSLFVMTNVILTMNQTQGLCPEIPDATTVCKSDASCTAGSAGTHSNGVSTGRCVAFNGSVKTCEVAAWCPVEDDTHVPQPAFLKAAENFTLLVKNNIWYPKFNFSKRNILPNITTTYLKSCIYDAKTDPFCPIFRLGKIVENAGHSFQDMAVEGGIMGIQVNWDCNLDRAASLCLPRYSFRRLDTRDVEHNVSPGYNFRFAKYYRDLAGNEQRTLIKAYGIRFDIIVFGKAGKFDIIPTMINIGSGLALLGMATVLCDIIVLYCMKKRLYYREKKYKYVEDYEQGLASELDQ

T3: human P2X7 (human, UniProt Q99572 1-595)
T3 construct: on transfected Hek293 cells; also called hP2X7
T3 sequence: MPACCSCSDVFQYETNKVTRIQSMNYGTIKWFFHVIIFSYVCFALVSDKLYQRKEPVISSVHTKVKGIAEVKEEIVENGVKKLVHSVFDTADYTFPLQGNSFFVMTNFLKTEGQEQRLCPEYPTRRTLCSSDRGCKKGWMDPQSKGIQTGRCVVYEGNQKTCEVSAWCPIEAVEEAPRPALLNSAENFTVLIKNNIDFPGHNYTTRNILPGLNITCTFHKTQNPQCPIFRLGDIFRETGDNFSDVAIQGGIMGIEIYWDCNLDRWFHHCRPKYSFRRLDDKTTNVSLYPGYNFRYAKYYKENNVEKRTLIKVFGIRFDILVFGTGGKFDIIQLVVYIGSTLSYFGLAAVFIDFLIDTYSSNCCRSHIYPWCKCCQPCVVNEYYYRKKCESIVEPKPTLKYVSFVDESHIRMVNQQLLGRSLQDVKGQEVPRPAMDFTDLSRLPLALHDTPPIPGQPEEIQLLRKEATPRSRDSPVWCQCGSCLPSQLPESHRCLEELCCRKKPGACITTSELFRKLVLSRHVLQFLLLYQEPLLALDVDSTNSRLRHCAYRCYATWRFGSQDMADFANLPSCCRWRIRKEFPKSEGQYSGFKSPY

B1: human chemokine receptor CXCR4 (receptor, UniProt P61073 1-352, looked up)
chain: MEGISIYTSDNYTEEMGSGDYDSMKEPCFREENANFNKIFLPTIYSIIFLTGIVGNGLVILVMGYQKKLRSMTDKYRLHLSVADLLFVITLPFWAVDAVANWYFGNFLCKAVHVIYTVNLYSSVLILAFISLDRYLAIVHATNSQRPRKLLAEKVVYVGVWIPALLLTIPDFIFANVSEADDRYICDRFYPNDLWVVVFQFQHIMVGLILPGIVILSCYCIIISKLSHSKGHQKRKALKTTVILILAFFACWLPYYIGISIDSFILLEIIKQGCEFENTVHKWISITEALAFFHCCLNPILYAFLGAKFKTSAQHALTSVSRGSSLKILSKGKRGGHSSVSTESESSSFHSS
notes: whole, on cells; on transfected HEK293 or camelid (CAKI) cells, or as membrane vesicles / membrane extracts of transfected HEK293 cells; also called hCXCR4
B2: P2X7PMP13A7 (VHH)
VHH: EVQLVESGGGLVQPGESLRLSCTASRFMLDYYDIGWFRQAPGKEREGVSCRFTNDGSTAYADSVKGRFTISRDIVKHTVYLQMNSLQPEDTAVYYCAAGPLTKRRQCVPGDFSMDFWGEGTLVTVSS
notes: family 22; on phage or c-myc/His6-tagged in assays

How the values were obtained:
Human CXCL12/SDF-1 alpha = target: T4, Human CXCL12/SDF-1 alpha (human, UniProt P48061-2 22-89, biotinylated or 125I-labelled); experiment: flow cytometry (Fluorokine kit) on CXCR4-transfected HEK293 but not parental HEK293 cells
T4 construct: also called CXCL12/SDF-la; SDF-1
Excerpt: To verify the functional expression of human CXCR4, the endotoxin-free pVAX1-CXCR4 plasmid was transiently transfected into HEK293 cells using Eugene (Roche) to monitor in vitro extracellular expression via flow cytometry.

mouse P2X7 [1] = target: T1, mouse P2X7; experiment: phage ELISA on fixed mP2X7-CHO vs untransfected CHO cells;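 also: phage culture supernatant diluted 10-fold, applied for 1 h to paraformaldehyde-fixed, BSA-blocked cells in 96-well plates, with bound phage read via HRP-linked anti-M13 antibody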
Description: Sub-confluent cells were rinsed with PBS and fixed using 4% paraformaldehyde in PBS for 10 minutes at RT. Fixed cells were washed three times with PBS, and blocked with 2% BSA in PBS for 2 hours. Following blocking, 10-fold diluted culture supernatant containing phage was added and incubated for 1 hour. Cell-bound phage was detected via mouse anti-M13-HRP-conjugate (GE Healthcare, Cat nr. E2886). Rat mAb Hano43 was used as positive control.

mouse P2X7 [2] = target: T1, mouse P2X7; experiment: cell-based or functional assay
human P2X4 = target: T2, human P2X4; experiment: flow cytometry, Nanobody pre-incubated with anti-Myc-FITC
human P2X7 = target: T3, human P2X7; experiment: as above
mouse P2X7 [3] = target: T1, mouse P2X7; experiment: cell-based or functional assay; remark: listed apart in the source
mouse P2X7 [4] = target: T1, mouse P2X7; experiment: flow cytometry, purified Nanobody titrated on mP2X7-CHO cells
mouse P2X7 [5] = target: T1, mouse P2X7; experiment: cell-based or functional assay; remark: listed apart in the source

T4 sequence (P48061 22-89 limits assumed): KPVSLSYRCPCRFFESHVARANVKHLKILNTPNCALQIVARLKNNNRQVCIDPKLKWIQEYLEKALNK

Binder | binding result (Human CXCL12/SDF-1 alpha) | Fold Cho P2X7/wt (phage ELISA) (mouse P2X7 [1]) [fold] | IC50 (read off the curve) (mouse P2X7 [2]) [nM] | binding result (human P2X4) | binding result (human P2X7) | ATP IC50 by 2 uM NB (head prints 'mM'; ligand titration at fixed Nanobody, CD62L shedding, Yac-1 cells) (mouse P2X7 [3]) [mM] | IC50 (nM) against 20 uM NAD (CD62L shedding, Yac-1 cells) (mouse P2X7 [3]) [nM] | IC50 (nM) against 100 uM ATP (CD62L shedding, Yac-1 cells) (mouse P2X7 [3]) [nM] | EC50 (mouse P2X7 [4]) [nM] | IC50 (read off the curve) (mouse P2X7 [5]) [nM]
B1 | binds | – | – | – | – | – | – | – | – | –
B2 | – | 25 | ~4 | no binding (tested: 147 nM) | no binding (tested: 147 nM) | 0.565 | 11 | 6 | 3.4 | ~1
